Results as given in US12099068B2, “Biomarkers for graft-versus-host disease” (Incyte Corporation, priority 2018, dated 2024).

B1: INPPL1 (protein, UniProt O15357 1-1258, looked up)
Phosphatidylinositol …: MASACGAPGPGGALGSQAPSWYHRDLSRAAAEELLARAGRDGSFLVRDSESVAGAFALCVLYQKHVHTYRILPDGEDFLAVQTSQGVPVRRFQTLGELIGLYAQPNQGLVCALLLPVEGEREPDPPDDRDASDGEDEKPPLPPRSGSTSISAPTGPSSPLPAPETPTAPAAESAPNGLSTVSHDYLKGSYGLDLEAVRGGASHLPHLTRTLATSCRRLHSEVDKVLSGLEILSKVFDQQSSPMVTRLLQQQNLPQTGEQELESLVLKLSVLKDFLSGIQKKALKALQDMSSTAPPAPQPSTRKAKTIPVQAFEVKLDVTLGDLTKIGKSQKFTLSVDVEGGRLVLLRRQRDSQEDWTTFTHDRIRQLIKSQRVQNKLGVVFEKEKDRTQRKDFIFVSARKREAFCQLLQLMKNKHSKQDEPDMISVFIGTWNMGSVPPPKNVTSWFTSKGLGKTLDEVTVTIPHDIYVFGTQENSVGDREWLDLLRGGLKELTDLDYRPIAMQSLWNIKVAVLVKPEHENRISHVSTSSVKTGIANTLGNKGAVGVSFMFNGTSFGFVNCHLTSGNEKTARRNQNYLDILRLLSLGDRQLNAFDISLRFTHLFWFGDLNYRLDMDIQEILNYISRKEFEPLLRVDQLNLEREKHKVFLRFSEEEISFPPTYRYERGSRDTYAWHKQKPTGVRTNVPSWCDRILWKSYPETHIICNSYGCTDDIVTSDHSPVFGTFEVGVTSQFISKKGLSKTSDQAYIEFESIEAIVKTASRTKFFIEFYSTCLEEYKKSFENDAQSSDNINFLKVQWSSRQLPTLKPILADIEYLQDQHLLLTVKSMDGYESYGECVVALKSMIGSTAQQFLTFLSHRGEETGNIRGSMKVRVPTERLGTRERLYEWISIDKDEAGAKSKAPSVSRGSQEPRSGSRKPAFTEASCPLSRLFEEPEKPPPTGRPPAPPRAAPREEPLTPRLKPEGAPEPEGVAAPPPKNSFNNPAYYVLEGVPHQLLPPEPPSPARAPVPSATKNKVAITVPAPQLGHHRHPRVGEGSSSDEESGGTLPPPDFPPPPLPDSAIFLPPSLDPLPGPVVRGRGGAEARGPPPPKAHPRPPLPPGPSPASTFLGEVASGDDRSCSVLQMAKTLSEVDYAPAGPARSALLPGPLELQPPRGLPSDYGRPLSFPPPRIRESIQEDLAEEAPCLQGGRASGLGEAGMSAWLRAIGLERYEEGLVHNGWDDLEFLSDITEEDLEEAGVQDPAHKRLLLDTLQLSK
B2: KLRD1 (protein, UniProt Q13241 1-179, looked up)
Natural killer cells antigen …: MAVFKTTLWRLISGTLGIICLSLMSTLGILLKNSFTKLSIEPAFTPGPNIELQKDSDCCSCQEKWVGYRCNCYFISSEQKTWNESRHLCASQKSSLLQLQNTDELDFMSSSQQFYWIGLSYSEEHTAWLWENGSALSQYLFPSFETFNTKNCIAYNPNGNALDESCEDKNRYICKQQLI
B3: FCRL5 (protein, UniProt Q96RD9 16-977, looked up)
Fc receptor-like protein 5: QFARTPRPIIFLQPPWTTVFQGERVTLTCKGFRFYSPQKTKWYHRYLGKEILRETPDNILEVQESGEYRCQAQGSPLSSPVHLDFSSASLILQAPLSVFEGDSVVLRCRAKAEVTLNNTIYKNDNVLAFLNKRTDFHIPHACLKDNGAYRCTGYKESCCPVSSNTVKIQVQEPFTRPVLRASSFQPISGNPVTLTCETQLSLERSDVPLRFRFFRDDQTLGLGWSLSPNFQITAMWSKDSGFYWCKAATMPYSVISDSPRSWIQVQIPASHPVLTLSPEKALNFEGTKVTLHCETQEDSLRTLYRFYHEGVPLRHKSVRCERGASISFSLTTENSGNYYCTADNGLGAKPSKAVSLSVTVPVSHPVLNLSSPEDLIFEGAKVTLHCEAQRGSLPILYQFHHEGAALERRSANSAGGVAISFSLTAEHSGNYYCTADNGFGPQRSKAVSLSVTVPVSHPVLTLSSAEALTFEGATVTLHCEVQRGSPQILYQFYHEDMPLWSSSTPSVGRVSFSFSLTEGHSGNYYCTADNGFGPQRSEVVSLFVTVPVSRPILTLRVPRAQAVVGDLLELHCEAPRGSPPILYWFYHEDVTLGSSSAPSGGEASFNLSLTAEHSGNYSCEANNGLVAQHSDTISLSVIVPVSRPILTFRAPRAQAVVGDLLELHCEALRGSSPILYWFYHEDVTLGKISAPSGGGASFNLSLTTEHSGIYSCEADNGLEAQRSEMVTLKVAVPVSRPVLTLRAPGTHAAVGDLLELHCEALRGSPLILYRFFHEDVTLGNRSSPSGGASLNLSLTAEHSGNYSCEADNGLGAQRSETVTLYITGLTANRSGPFATGVAGGLLSIAGLAAGALLLYCWLSRKAGRKPASDPARSPSDSDSQEPTYHNVPAWEELQPVYTNANPRGENVVYSEVRIIQEKKKHAVASDPRHLRNKGSPIIYSEVKVASTPVSGSLFLASSAPHR
B4: VEGFD (protein, UniProt O43915 89-205, looked up)
Vascular endothelial growth …: FAATFYDIETLKVIDEEWQRTQCSPRETCVEVASELGKSTNTFFKPPCVNVFRCGGCCNEESLICMNTSTSYISKQLFEISVPLTSVPELVPVKVANHTGCKCLPTAPRHPYSIIRR
B5: TMPRSS15 (protein, UniProt P98073 2-784; P98073 785-1019, looked up)
Enteropeptidase non-catalytic …: GSKRGISSRHHSLSSYEIMFAALFAILVVLCAGLIAVSCLTIKESQRGAALGQSHEARATFKITSGVTYNPNLQDKLSVDFKVLAFDLQQMIDEIFLSSNLKNEYKNSRVLQFENGSIIVVFDLFFAQWVSDENVKEELIQGLEANKSSQLVTFHIDLNSVDILDKLTTTSHLATPGNVSIECLPGSSPCTDALTCIKADLFCDGEVNCPDGSDEDNKMCATVCDGRFLLTGSSGSFQATHYPKPSETSVVCQWIIRVNQGLSIKLSFDDFNTYYTDILDIYEGVGSSKILRASIWETNPGTIRIFSNQVTATFLIESDESDYVGFNATYTAFNSSELNNYEKINCNFEDGFCFWVQDLNDDNEWERIQGSTFSPFTGPNFDHTFGNASGFYISTPTGPGGRQERVGLLSLPLDPTLEPACLSFWYHMYGENVHKLSINISNDQNMEKTVFQKEGNYGDNWNYGQVTLNETVKFKVAFNAFKNKILSDIALDDISLTYGICNGSLYPEPTLVPTPPPELPTDCGGPFELWEPNTTFSSTNFPNSYPNLAFCVWILNAQKGKNIQLHFQEFDLENINDVVEIRDGEEADSLLLAVYTGPGPVKDVFSTTNRMTVLLITNDVLARGGFKANFTTGYHLGIPEPCKADHFQCKNGECVPLVNLCDGHLHCEDGSDEADCVRFFNGTTNNNGLVRFRIQSIWHTACAENWTTQISNDVCQLLGLGSGNSSKPIFPTDGGPFVKLNTAPDGHLILTPSQQCLQDSLIRLQCNHKSCGKKLAAQDITPK
Enteropeptidase catalytic …: IVGGSNAKEGAWPWVVGLYYGGRLLCGASLVSSDWLVSAAHCVYGRNLEPSKWTAILGLHMKSNLTSPQTVPRLIDEIVINPHYNRRRKDNDIAMMHLEFKVNYTDYIQPICLPEENQVFPPGRNCSIAGWGTVVYQGTTANILQEADVPLLSNERCQQQMPEYNITENMICAGYEEGGIDSCQGDSGGPLMCQENNRWFLAGVTSFGYKCALPNRPGVYARVSRFTEWIQSFLH
B6: SIGLEC10 (protein, UniProt Q96LC7 17-697, looked up)
Sialic acid-binding Ig-like …: MDGRFWIRVQESVMVPEGLCISVPCSFSYPRQDWTGSTPAYGYWFKAVTETTKGAPVATNHQSREVEMSTRGRFQLTGDPAKGNCSLVIRDAQMQDESQYFFRVERGSYVRYNFMNDGFFLKVTALTQKPDVYIPETLEPGQPVTVICVFNWAFEECPPPSFSWTGAALSSQGTKPTTSHFSVLSFTPRPQDHNTDLTCHVDFSRKGVSAQRTVRLRVAYAPRDLVISISRDNTPALEPQPQGNVPYLEAQKGQFLRLLCAADSQPPATLSWVLQNRVLSSSHPWGPRPLGLELPGVKAGDSGRYTCRAENRLGSQQRALDLSVQYPPENLRVMVSQANRTVLENLGNGTSLPVLEGQSLCLVCVTHSSPPARLSWTQRGQVLSPSQPSDPGVLELPRVQVEHEGEFTCHARHPLGSQHVSLSLSVHYSPKLLGPSCSWEAEGLHCSCSSQASPAPSLRWWLGEELLEGNSSQDSFEVTPSSAGPWANSSLSLHGGLSSGLRLRCEAWNVHGAQSGSILQLPDKKGLISTAFSNGAFLGIGITALLFLCLALIIMKILPKRRTQTETPRPRFSRHSTILDYINVVPTAGPLAQKRNQKATPNSPRTPLPPGAPSPESKKNQKKQYQLPSFPEPKSSTQAPESQESQEELHYATLNFPGVRPRPEARMPKGTQADYAEVKFQ
B7: CD177 (protein, UniProt Q8N6Q3 22-408, looked up)
CD177 antigen: LLCQFGTVQHVWKVSDLPRQWTPKNTSCDSGLGCQDTLMLIESGPQVSLVLSKGCTEAKDQEPRVTEHRMGPGLSLISYTFVCRQEDFCNNLVNSLPLWAPQPPADPGSLRCPVCLSMEGCLEGTTEEICPKGTTHCYDGLLRLRGGGIFSNLRVQGCMPQPGCNLLNGTQEIGPVGMTENCNRKDFLTCHRGTTIMTHGNLAQEPTDWTTSNTEMCEVGQVCQETLLLLDVGLTSTLVGTKGCSTVGAQNSQKTTIHSAPPGVLVASYTHFCSSDLCNSASSSSVLLNSLPPQAAPVPGDRQCPTCVQPLGTCSSGSPRMTCPRGATHCYDGYIHLSGGGLSTKMSIQGCVAQPSSFLLNHTRQIGIFSAREKRDVQPPASQHEGG
B8: SKAP1 (protein, UniProt Q86WV1 1-359, looked up)
Src kinase-associated …: MQAAALPEEIRWLLEDAEEFLAEGLRNENLSAVARDHRDHILRGFQQIKARYYWDFQPQGGDIGQDSSDDNHSGTLGLSLTSDAPFLSDYQDEGMEDIVKGAQELDNVIKQGYLEKKSKDHSFFGSEWQKRWCVVSRGLFYYYANEKSKQPKGTFLIKGYGVRMAPHLRRDSKKESCFELTSQDRRSYEFTATSPAEARDWVDQISFLLKDLSSLTIPYEEDEEEEEKEETYDDIDGFDSPSCGSQCRPTILPGSVGIKEPTEEKEEEDIYEVLPDEEHDLEEDESGTRRKGVDYASYYQGLWDCHGDQPDELSFQRGDLIRILSKEYNMYGWWVGELNSLVGIVPKEYLTTAFEVEER

The molecules below were run on plasma proteins (assay: Plasma proteins modulated between baseline and day 28 in responders (CR, VGPR, PR; n = 19), Example 6 (Table 13)). Settings: plasma protein (OLINK NPX); responders (CR, VGPR, PR; n = 19); itacitinib 200 mg or 300 mg QD with corticosteroids; day 28 vs baseline.
Type: in vivo, human
Summary of the method: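 Plasma at baseline/screening and day 28 profiled for >1000 proteins by OLINK proximity extension assay, reported as NPX (log2). Steroid-naive and steroid-refractory patients pooled. Paired and unpaired t tests, ANOVA and Pearson correlation applied; significance at P<0.05.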

Question: B1 was tested. Which “Fold Change, Decreased Expression from Baseline to Day 28” value (“Fold Change, Decreased Expression” for short) did it give?
Answer: −1.7131

Question: B2 was tested. Which “Fold Change, Decreased Expression” value did it give?
Answer: −1.8117

Question: With B3 as the molecule, how does the “Fold Change, Decreased Expression” value read?
Answer: −1.3113

Question: Which “Fold Change, Increased Expression from Baseline to Day 28” value does the source give for B4 here?
Answer: 1.147

Question: Which “Fold Change, Increased Expression from Baseline to Day 28” value does the source give for B5 here?
Answer: 3.0633

Question: B6 was tested. Which “Fold Change, Decreased Expression” value did it give?
Answer: −1.4974

Question: Which “Fold Change, Decreased Expression” value does the source give for B7 here?
Answer: −1.768

Question: B8 was tested. Which “Fold Change, Decreased Expression” value did it give?
Answer: −1.8075
